This note sets out measurements from doi:10.1101/2025.02.01.633781.

In the data set the target is FUS (recombinant, produced in-house) (UniProt P35637 1-526). The data set can be described thus: EMSA.
Sequence of FUS (recombinant, produced in-house) (P35637 whole entry): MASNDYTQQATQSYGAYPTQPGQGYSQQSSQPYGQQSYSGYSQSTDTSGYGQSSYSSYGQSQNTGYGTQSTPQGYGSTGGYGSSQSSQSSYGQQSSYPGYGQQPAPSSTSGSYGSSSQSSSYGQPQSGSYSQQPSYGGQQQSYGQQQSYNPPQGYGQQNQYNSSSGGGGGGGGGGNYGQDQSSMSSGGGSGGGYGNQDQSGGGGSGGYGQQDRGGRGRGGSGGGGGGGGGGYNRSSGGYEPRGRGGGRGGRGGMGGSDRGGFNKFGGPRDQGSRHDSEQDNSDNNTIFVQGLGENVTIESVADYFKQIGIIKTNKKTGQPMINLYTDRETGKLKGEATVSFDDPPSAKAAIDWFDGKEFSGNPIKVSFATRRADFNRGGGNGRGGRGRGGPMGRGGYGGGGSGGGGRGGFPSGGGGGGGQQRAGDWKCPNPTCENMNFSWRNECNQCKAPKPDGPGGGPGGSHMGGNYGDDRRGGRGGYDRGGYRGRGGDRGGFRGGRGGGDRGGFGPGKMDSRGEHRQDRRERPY

With GGACUCGGACUUGGACUCUGGACUUUGGAC (ssRNA) [4xDRACH], the binding result was “binds”.
